US20190106487A1 (Sanofi, published 2019)

T1: human IL-1RAcP on 293T/17-FR cells (human, UniProt Q9NPH3 21-570)
T1 sequence (looked up): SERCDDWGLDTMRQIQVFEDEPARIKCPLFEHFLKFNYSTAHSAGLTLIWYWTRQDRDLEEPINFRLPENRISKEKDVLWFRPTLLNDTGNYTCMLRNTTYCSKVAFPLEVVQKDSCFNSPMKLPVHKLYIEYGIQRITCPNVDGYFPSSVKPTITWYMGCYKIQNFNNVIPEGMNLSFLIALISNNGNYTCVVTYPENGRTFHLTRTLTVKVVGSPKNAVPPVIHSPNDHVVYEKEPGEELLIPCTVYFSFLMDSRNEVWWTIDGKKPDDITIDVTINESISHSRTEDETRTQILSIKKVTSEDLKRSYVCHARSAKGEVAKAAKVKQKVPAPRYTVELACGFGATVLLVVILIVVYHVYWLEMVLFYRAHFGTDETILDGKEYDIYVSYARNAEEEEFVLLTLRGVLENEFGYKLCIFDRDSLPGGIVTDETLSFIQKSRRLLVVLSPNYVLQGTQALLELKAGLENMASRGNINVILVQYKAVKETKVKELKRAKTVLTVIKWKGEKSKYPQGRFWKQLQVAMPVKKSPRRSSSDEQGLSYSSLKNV

T2: rhIL-1RAcP/Fc Chimera (human, UniProt Q9NPH3 21-359)
T2 construct: also called P013_03; P013-03
T2 sequence (looked up): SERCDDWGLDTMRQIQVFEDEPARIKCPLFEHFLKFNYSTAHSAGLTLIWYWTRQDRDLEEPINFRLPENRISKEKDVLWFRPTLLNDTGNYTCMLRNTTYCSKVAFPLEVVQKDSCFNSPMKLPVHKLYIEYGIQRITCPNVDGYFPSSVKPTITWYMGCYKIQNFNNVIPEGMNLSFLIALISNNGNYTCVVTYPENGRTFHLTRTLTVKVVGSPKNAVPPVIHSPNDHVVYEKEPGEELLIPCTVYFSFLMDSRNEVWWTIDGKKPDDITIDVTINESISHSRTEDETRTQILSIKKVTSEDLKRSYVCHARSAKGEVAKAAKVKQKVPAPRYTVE


Assays:
[1] = target: T1, human IL-1RAcP on 293T/17-FR cells; assay: cell-based or functional assay
[2] = target: T2, rhIL-1RAcP/Fc Chimera; assay: ELISA, recombinant purified mAb
[3] = target: T2, rhIL-1RAcP/Fc Chimera; assay: ELISA, primary supernatant, coated hu-IL-1RAcP-Fc
Excerpt: Microtiter plates were coated IL-1RACP and/or IL12Rβ1 protein (recombinant Fc chimeric conjugates of human IL-1RACP or IL12Rβ1). After a blocking process, specific antibodies from B-cell supernatants bind to the targets and are then detected by a POD-labeled anti-rabbit IgG antibody. The IL12Rβ1 binding was used as a counterscreen. IL-1RACP protein was tagged with a linker, huFc and His like the IL12Rβ1 protein. Antibodies which bind to the tag were positive in both assays, whereas antigen specific antibodies just bound to IL-1RACP and not to IL12Rβ1.
12.5 μL 0.5 μg/mL IL-1RACP protein in PBS was transferred to a microtiter plate, incubated and washed 3× with Wash Buffer. 90 μL Block Buffer was added to each well, incubated and washed. 12.5 μl Standard Antibody (rabbit mAb against IL-1RAcP, anti IL12Rbeta1 antibody: IL-12Rbeta1 antibody; GeneTex; Cat. No. GTX103917) or sample diluted in ELISA buffer was added, incubated and washed. 12.5 μl 1:5000 POD-Antibody (Anti-rabbit IgG, peroxidase-linked species-specific Fab2 fragment (from donkey) (ECL); assay dilution: 1:5000) in Elisa Buffer was added, incubated and washed. 15 μl TMB was added and 15 μl HCl was added after sufficient development. Absorbance (Optical Density O.D.) was read at 450 nm/620 nm.

Binder | functional reporter gene assay (% inhibition), 0.04 µg/mL mAb [1] [%] | functional reporter gene assay (% inhibition), 0.2 µg/mL mAb [1] [%] | functional reporter gene assay (% inhibition), 1 µg/mL mAb [1] [%] | functional reporter gene assay (% inhibition), 5 µg/mL mAb [1] [%] | primary supernatant functional assay (% inh.), NF-kB luciferase reporter [1] [%] | EC50 [2] [µg/mL] | hu-IL1RaP ELISA (OD) [3] [OD]
P013.S.01.B.G02 (antibody, V domains shown, rabbit monoclonal antibody; also called P013.A.00085.B11) VH: QSVEESGGRLVTPGTPLTLTCTVSGFSLSSYYMSWVRQAPGKGLEWIGYIYAAGPITYYATWAKGRFTISKTSTTVDLKITSPTTEDTATYFCVRDGSGSGTYGYNGMDLWGPGTLVTVSS VL: AYDMTQTPASVEAAVGGTVNIKCQASQSISNWLAWYQQKPGQRPKLLIYRASTLASGVSSRFKGSGSGTQFTLTISGVESADAATYYCQQGASTTDVDNVFGGGTEVVVK | 43 | 52 | 41 | 72 | 71 | 0.049 | 3.7
P013.S.01.B.H03 (antibody, V domains shown, rabbit monoclonal antibody; also called P013.A.00045.A02) VH: QSVEESGGRLVTPGTPLTLTCTVSGFSLSSYYMSWVRQAPGKGLEWIGYIYAAGPITYYATWAKGRFTISKTSTTVDLKITSPTTEDTATYFCVRDGSGSGTYGYNGMDLWGPGTLVTVSS VL: AYDMTQTPASVEAAVGGTVNIKCQASQSISNWLAWYQQKPGQPPKLLIYRASTLASGVSSRFKGSGSGTQFTLTISGVESADAATYYCQQGASTTDVDNVFGGGTEVVVK | 28 | 49 | 59 | 60 | 43 | 0.104 | 3.5
P013.S.02.B.C05 (antibody, V domains shown, rabbit monoclonal antibody; also called P013.A.00085.F10) VH: QSLEESGGRLVTPGTPLTLSCTASGFSLSTYYMSWVRQAPGKGLEWIGYMHVGGFPVYASWAKGRFTISKTSTTVDLKITSPTIEDTATYFCARDFGPPNWTLDLWGQGTLVTVSS VL: DVVMTQTPASVEAAVGGTVTIKCQASQSISSYCSWYQQKPGQPPKLLIYRASTLESGVPSRFKGSGSGTEFTLTISDLESADAATYYCQSSYYDLLGNGFGGGTEVVVK | 7 | 26 | 35 | 52 | 66 | – | 3.2
P013.S.01.B.D05 (antibody, V domains shown, rabbit monoclonal antibody; also called P013.A.00085.G03) VH: EQSGGGAEGGLVKPGGSLELYCKASGFSLSSDAWICWVRQAPGKGLEWIGCIYAGSASNTYYATWVNGRFTLSRDIAQSTGCLQLNSLTAADTAMYYCARDRGYDDYGDITRLDLWGQGTLVTVSS VL: ALVLTQTPSPVSAAVGGTVTINCQASEDIYSNLAWFQQKPGQPPKLLIYRASTLASGVPSRFSGSGSGTEFTLTISGLQSDDAATYYCLGVYTYLSDLFFVFGGGTEVVVK | 26 | 66 | 77 | 62 | 93 | – | 3.4
P013.S.02.B.B01 (antibody, V domains shown, rabbit monoclonal antibody; also called P013.A.00088.A11) VH: QSLEESGGRLVTPGTPLTLTCTVSGFSLSGYAMSWVRQAPGKGLEWIGIIYAGSGGTYYASWVKGRFTISKTSTTVDLKITSLTTEDTATYFCARAVPDDSAGKKLWGQGTLVTVSS VL: DIVMTQTPASVEAAVGGTITINCQASENIYSSLAWYQQKPGQPPKLLIYDASTLASGVSSRFKGSGSGTQFTLTISGVQSDDAATYYCQSYYCSVSSSCGYGFGGGTEVVVK | 24 | 39 | 75 | 94 | 95 | – | 3.6
P013.S.01.B.F02 (antibody, V domains shown, rabbit monoclonal antibody; also called P013.A.00043.D08) VH: QEQLVESGGGLVQPEGSLTLTCTASGFSFSSNYWMCWVRQAPGKGLEWIACIYTGGSGVTYYASWAKGRFTLSKTSSTTVTLQVTSLTAADTATYFCARDLVVVTSFNLWGQGTLVTVSS VL: ALMMTQTPSPVSAAVGGTVTINCQASEDIYSNLAWYQQKPGQPPKLLIYSASTLASGVPSRFSGSGSGTEFTLTISGVQSDDAATYYCLGVCTDISVDDVYNSFGGGTEVVVK | 45 | 59 | 80 | 93 | 76 | – | 3.4

Next, values leading:

functional reporter gene assay (% inhibition), 0.04 µg/mL mAb [1] [%] | functional reporter gene assay (% inhibition), 0.2 µg/mL mAb [1] [%] | functional reporter gene assay (% inhibition), 1 µg/mL mAb [1] [%] | functional reporter gene assay (% inhibition), 5 µg/mL mAb [1] [%] | primary supernatant functional assay (% inh.), NF-kB luciferase reporter [1] [%] | EC50 [2] [µg/mL] | hu-IL1RaP ELISA (OD) [3] [OD] | Binder
7 | 45 | 67 | 87 | 67 | 0.073 | 3.8 | P013.S.02.B.A01 (antibody, V domains shown, rabbit monoclonal antibody; also called P013.A.00087.A07) VH: QSVEESGGRLVTPGTPLTLTCTVSGFSLSSYYMSWVRQAPGKGLEWIGYIYAAGPITYYATWAKGRFTISKTSTTVDLKITSPTTEDTATYFCVRDGSGSGTYGYNGMDLWGPGTLVTVSS VL: AYDMTQTPASVEAAVGGTVTIKCQASQSISNWLAWYQQKPGQRPKLLIYRASTLASGVSSRFKGSGSGTQFTLTISGVESADAATYYCQQGASTTDVDNVFGGGTEVVVK
-1 | 0 | 4 | -18 | 27 | – | 2.9 | P013.S.02.B.G04 (antibody, V domains shown, rabbit monoclonal antibody; also called P013.A.00015.A11) VH: QSLEESGGRLVTPGTPLTLTCTVSGFSLSRCAMIWVRQAPGKGLEWIGFIGRGGSTWYASWVNGRFTISKTSTTVDLKITSPTTEDTATYFCARDGDYSDYYTFDLWGQGTLVTVSS VL: DVVMTQTPASVSERVGGTVTIKCQASQSIGSNLAWYQQKPGQPPKLLIYGASNLESGVPSRFSGSGSGTEFTLSISGVQSADAATYYCQCSGYDTTGVFPFGGGSEVVVK
44 | 68 | 88 | 92 | 99 | – | 4 | P013.S.01.B.D02 (antibody, V domains shown, rabbit monoclonal antibody; also called P013.A.00022.E06) VH: LEQSGGGAEGGLVKPGGSLELCCKASGFSLTTNYWICWVRQAPGKGLEWIGCIYANSVGSTYYASWVNGRFTLSRDIDQSTGCLQLNSLTAADTAMYYCARVDPGYSFDAFDPWGPGTLVTVSS VL: ALVMTQTPSPVSAAVGGTVTINCQASEDIYSNLAWFQQKPGQPPKLLIYRASTLASGVPSRFSGSGSGTEFTLTISALQSDDAATYYCLGVRTYFNTLNNSFGGGTEVVVK
26 | 59 | 87 | 94 | 102 | 0.44 | 3.4 | P013.S.01.B.F03 (antibody, V domains shown, rabbit monoclonal antibody; also called P013.A.00025.F02) VH: LEQSGGGAEGGLVKPGGSLELCCKASGFSLGSSYWICWVRQAPGKGLEWIGCIYAGSSGITYYASWVSGRFTLSRDIDQSTGCLQLNSLTAADTAMYYCARDIYASTSGYDLWGQGTLVTVSS VL: ALVMTQTPSPVSAAVGGTVTINCQASEDIYSNLAWFQQKPGQPPKLLIYQASTLASGVPSRFSGSGSGTEFTLTISGLQSDDAAAYYCLGVCTYIGADNTLYNTFGGGTEVVVK
